According to US20230295308A1, “ANTAGONISTIC BIPARATOPIC ANTIBODIES THAT SPECIFICALLY BIND FIBROBLAST GROWTH FACTOR RECEPTOR 2 AND METHODS OF USING SAME” (The Broad Institute, Inc., priority 2020, published 2023):
“Also recorded” adds a separate entry of the source.

Tests used:
[1] = target: FGFR2 on SNU-16 gastric cancer cell line with FGFR2 amplification (UniProt P21802); assay: row 'Kd (nM) (FACS)'; FACS on SNU-16 cells
[2] = tested on: BaF3 cells expressing wild-type FGFR2IIIb; assay: ligand-induced (FGF10) growth of BaF3 cells expressing FGFR2IIIb (FIG. 8); type: cell-based
Description: FIG. 8 is a schematic (described at FIG. 7A) and a graph showing the growth of BaF3 cells expressing FGFR2IIIb when treated with FGF10. Anti-FGFR2 antibodies blocked ligand-dependent stimulation of BaF3 cells expressing wild-type FGFR2b. FGFR2b is an isoform of FGFR2 that is predominantly expressed in cholangiocarcinoma.
Antibodies A-F were tested to determine whether they could inhibit the ligand-induced growth of BaF3 cells expressing FGFR2IIIb. Antibodies C, D, and E, which bind FGFR2 Ig-2 and Ig-3, were effective in blocking ligand-induced growth of BaF3 cells expressing wild-type FGFR2IIIb (FIG. 8). The effects of antibodies A-F were then tested on BaF3 cells expressing FGFR2-PHDGH fusions. […] Antibody F inhibited the FGFR2-PHDGH activating fusion in BaF3 cells (FIG. 9).

[3] = target: FGFR2 on SNU-16 gastric cancer cell line with FGFR2 amplification (UniProt P21802); assay: FACS on SNU-16 cells, % cells with FITC+ against log antibody concentration; Kd printed in the legend box [cont.]
[4] = tested on: FGFR2-PHDGH fusion expressing BaF3 cells; assay: ligand stimulated (FGF10) growth of FGFR2-PHGDH fusion expressing BaF3 cells (FIG. 10); type: cell-based; conditions: FGF10 present
Description: FIG. 10 is a graph showing that antibodies C, D, E and F have activity against ligand stimulated growth of FGFR2-PHDGH fusion expressing BaF3 cells.
The growth of BaF3 cells expressing an FGFR2-PHDGH fusion was assayed in the presence of FGF ligand, FGF10. Antibodies C, D, E and F inhibited ligand stimulated growth of FGFR2-PHDGH fusion expressing BaF3 cells (FIG. 10). Based on the results reported herein above, antagonistic biparatopic antibodies are made using the FGFR2 antibody combinations shown in FIG. 11A. These combinations result in increased growth inhibition effects in oncogenic or cancer cells (e.g., transformed BaF3 cells) that overexpressed […]. Thus, antibodies that bind to epitopes have increased inhibitory and killing effects against cancer cells. Designs for antagonistic biparatopic antibodies are shown at FIGS. 11B and 11C. Advantageously, including complementary mutations in VH-VL and CH1-CL on one-half of the biparatopic antibody results in preferential heterodimeric pairing between two different chains rather than chains from the other half of the same antibody. Alternatively, a linker method is used to create scFab, scFv, or DuoBodies. In this method two antibody chains are each generated in different cells and mixed in vitro. Such methods are known in the art and described, for example, by K. Ding et al, March 2017, Appl. Microbiol. […]

FGFR2IIIb = target: T1, FGFR2IIIb; assay: row 'Kd (nM) (patent)', value quoted from the source patent; method: Radioimmunoassay-purified FGFR2IIIb
T1 construct: also called purified FGFR2IIIb
T1 chain: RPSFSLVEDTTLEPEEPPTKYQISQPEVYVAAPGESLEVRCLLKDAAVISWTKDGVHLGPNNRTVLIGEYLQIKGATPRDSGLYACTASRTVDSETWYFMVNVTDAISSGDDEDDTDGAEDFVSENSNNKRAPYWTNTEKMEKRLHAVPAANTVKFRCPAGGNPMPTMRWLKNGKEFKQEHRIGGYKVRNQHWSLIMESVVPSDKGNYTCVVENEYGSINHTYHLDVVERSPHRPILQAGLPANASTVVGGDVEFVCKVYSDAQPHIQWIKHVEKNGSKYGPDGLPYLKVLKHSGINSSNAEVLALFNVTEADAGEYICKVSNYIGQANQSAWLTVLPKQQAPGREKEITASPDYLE

[5] = tested on: BaF3 cells overexpressing FGFR2-PHGDH; assay: combination of BGJ398 and anti-FGFR2 bivalent antibody, isobolograms and Loewe scores (FIGS. 14, 15); type: cell-based; conditions: presence of FGF10, treated for 5 days
Description: FIGS. 14B-14D provide isobolograms showing synergy between FGFR inhibitor and the anti-[…] bivalent antibody on the different days and supporting the results shown in FIG. 14A. FIG. 14B corresponds to 3 days after treatment with the BGJ398 inhibitor; FIG. 14C corresponds to 4 days after treatment with the BGJ398 inhibitor; and FIG. 14D corresponds to 5 days after treatment with the BGJ398 inhibitor. FIG. 14E provide Loewe scores showing synergy between the FGFR inhibitor and the anti-FGF2 bivalent antibody on the different days and supporting the results shown in FIG. 14A.
FIG. 15A presents charts showing synergy between the FGFR2 small molecule inhibitor BGJ398 and an anti-FGFR2 bivalent antibody (Antibody D) in the presence of FGF ligand (+FGF) in a cell-based assay using BaF3 cells overexpressing an FGFR2 fusion molecule (FGFR2-PHGDH) after 3, 4 and 5 days of treatment with the inhibitor and the antibody. […] FIGS. 15B-15D provide isobolograms showing synergy between the FGFR inhibitor and the anti-FGF2 bivalent antibody on the different days and supporting the results shown in FIG. 15A. FIG. 15B corresponds to 3 days after treatment with the BGJ398 inhibitor; FIG. 15C corresponds to 4 days after treatment with the BGJ398 inhibitor; and FIG. 15D corresponds to 5 days after treatment with the BGJ398 inhibitor. […]

[6] = target: FGFR2 on SNU-16 gastric cancer cell line with FGFR2 amplification (UniProt P21802); assay: FACS on SNU-16 cells, % No. of cells with FITC+
[7] = target: FGFR2 on SNU-16 gastric cancer cell line with FGFR2 amplification (UniProt P21802); assay: FACS on SNU-16 cells, % cells with FITC+ [cont.]

Kd [1]: 1.78 nM
Kd [3]: 1.78 nM
Kd (FGFR2IIIb): 3 nM
EC50 (read off the curve) [6]: 0.3 µg/mL
EC50 (read off the curve) [7]: 0.3 µg/mL
B1: 2B 1.3.12 (antibody, V domains shown)
VH: EVQLVESGGGLVQPGGSLRLSCAASGFPFTSTGISWVRQAPGKGLEWVGRTHLGDGSTNYADSVKGRFTISADTSKNTAYLQMNSLRAEDTAVYYCARTYGIYDTYDMYTEYVMDYWGQGTLVTVSS
VL: DIQMTQSPSSLSASVGDRVTITCRASQDVDTSLAWYKQKPGKAPKLLIYSASFLYSGVPSRFSGSGSGTDFTLTISSLQPEDFATYYCQQSTGHPQTFGQGTKVEIK
notes: the duobody scheme implies IgG1 with K409R or F405L; also called Antibody D; GE
blocking ligand-induced growth of BaF3 cells expressing wild-type FGFR2IIIb [2]: effective
inhibition of ligand stimulated growth of FGFR2-PHGDH fusion expressing BaF3 cells [4]: have activity; also recorded: inhibited
synergy with BGJ398 in inhibiting FGFR2-PHGDH driven BaF3 cell growth [5]: synergizes
